In assay [1] the target is HLA-DR3 (DRB1*0301) (Homo sapiens, UniProt P01903+P01911, A100K/A102G/A103R/A169T/F55Y/I96L/K41T/L162R/M171V/P40S/Q125H/Q178H/Q39Y/R42S/S66N/T106N/T262R/W38E/Y61H). As to the kind of experiment: HLA II/peptide competition binding assay, DR3. To be noted: ratio of IC50 of competitor peptide to IC50 of reference peptide; mean of at least two independent experiments; less than 100 = active.

The target of assay [2] is HLA-DR4 (DRB1*0401) (Homo sapiens, UniProt P01903+P01911, A100K/A169T/F76Y/I96L/K127E/L162R/M171V/N62H/P40V/Q125Y/R42H/S133A/S149N/S66Y/V115G/V209L/W38E). Description: HLA II/peptide competition binding assay, DR4. To be noted: ratio of IC50 of competitor peptide to IC50 of reference peptide; mean of at least two independent experiments; less than 100 = active.
Assay [3] has as its target HLA-DR13 (DRB1*1301) (Homo sapiens, UniProt P01903+P01911, A100E/A169T/K41T/L162R/M171V/P40S/Q125H/Q178H/Q39Y/Q99D/R42S/S66N/T262R/W38E/Y61H). Description: HLA II/peptide competition binding assay, DR13. Conditions: ratio of IC50 of competitor peptide to IC50 of reference peptide; mean of at least two independent experiments; less than 100 = active.
Assay [4] addresses HLA-DR15 (DRB1*1501) (Homo sapiens, UniProt P01903+P01911). Description: HLA II/peptide competition binding assay, DR15. Conditions: ratio of IC50 of competitor peptide to IC50 of reference peptide; mean of at least two independent experiments; less than 100 = active.
For assay [5], the target named is HLA-DRB3 (DRB3*0101) (Homo sapiens, UniProt P01903+P79483). As to the kind of experiment: HLA II/peptide competition binding assay, DRB3. To be noted: ratio of IC50 of competitor peptide to IC50 of reference peptide; mean of at least two independent experiments; less than 100 = active.
The target in assay [6] is HLA-DRB4 (DRB4*0101) (Homo sapiens, UniProt P01903+P13762, G164S). As to the kind of experiment: HLA II/peptide competition binding assay, DRB4. To be noted: ratio of IC50 of competitor peptide to IC50 of reference peptide; mean of at least two independent experiments; less than 100 = active.
In assay [7] the target is T1, HLA-DP401 (DPB1*0401) (Homo sapiens, UniProt P04440+P20036).
T1 sequence (P04440 30-258): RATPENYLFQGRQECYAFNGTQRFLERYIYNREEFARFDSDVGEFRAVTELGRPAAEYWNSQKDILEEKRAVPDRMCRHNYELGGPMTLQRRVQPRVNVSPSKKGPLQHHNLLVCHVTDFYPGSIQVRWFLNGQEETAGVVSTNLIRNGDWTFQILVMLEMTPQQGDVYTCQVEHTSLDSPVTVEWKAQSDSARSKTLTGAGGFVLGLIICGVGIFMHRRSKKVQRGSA
T1 sequence (P20036 29-260): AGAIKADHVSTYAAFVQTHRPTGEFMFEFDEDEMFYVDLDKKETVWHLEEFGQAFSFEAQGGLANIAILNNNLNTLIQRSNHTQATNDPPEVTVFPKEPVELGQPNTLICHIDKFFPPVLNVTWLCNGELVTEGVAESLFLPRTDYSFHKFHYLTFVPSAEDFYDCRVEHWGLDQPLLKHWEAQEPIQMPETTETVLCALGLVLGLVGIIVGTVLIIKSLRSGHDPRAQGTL
The class given is binding. To be noted: ratio of IC50 of competitor peptide to IC50 of reference peptide; mean of at least two independent experiments; less than 100 = active.

The target of assay [8] is T2, HLA-DP402 (DPB1*0402) (Homo sapiens, UniProt P04440+P20036, A65V/A84D/A85E/L207M).
T2 sequence (P04440 30-258 A65V/A84D/A85E): T1 sequence (P04440 30-258) with A36V, A55D, A56E
T2 sequence (P20036 29-260): T1 sequence (P20036 29-260)
The class given is binding. Conditions: ratio of IC50 of competitor peptide to IC50 of reference peptide; mean of at least two independent experiments; less than 100 = active.

The target of assay [9] is HLA-DR7 (DRB1*0701) (Homo sapiens, UniProt P01903+P01911, A100R/A102G/A103Q/D57E/D86V/E43K/F76Y/K127E/L162R/M171V/P40G/Q125H/Q99D/R33Q/R42Y/R54Q/S133A/S66F/T210M/V115G/Y107V/Y59L/Y89S). As to the kind of experiment: HLA II/peptide competition binding assay, DR7. Conditions: ratio of IC50 of competitor peptide to IC50 of reference peptide; mean of at least two independent experiments; less than 100 = active.

Assay [10] addresses HLA-DR11 (DRB1*1101) (Homo sapiens, UniProt P01903+P01911, A100R/A169T/A87E/I96F/K41T/L162R/M171V/P40S/Q125H/Q178H/Q39Y/Q99D/R42S/S66Y/T262R/V115G/W38E). It counts as binding. Conditions: ratio of IC50 of competitor peptide to IC50 of reference peptide; mean of at least two independent experiments; less than 100 = active.
Assay [11] deals with 12 predominant HLA II molecules. Description: HLA II/peptide binding assays, count over the panel. Set-up: species or system human. To be noted: relative activity of less than 100 characterizes the active peptides. The text has this: The assays for binding to HLA II molecules are competition binding assays with immunoenzymatic visualization, as described in U.S. Pat. No. 6,649,166 and PCT international application WO 03/040299, respectively, for the HLA-DR and HLA-DP4 molecules. The implementation of these assays for measuring the binding activity of peptides derived from various antigens is illustrated in U.S. Pat. No. 6,649,166 and PCT international applications WO 02/090382, WO 03/040299 and WO 2004/014936.
The sensitivity of each test is reflected by the IC50 values observed with the nonbiotinylated peptides which correspond to the tracers. […] The results are expressed in the form of relative activity (ratio of the IC50 of the competitor peptide to that of the reference peptide (nonbiotinylated peptide which corresponds to the tracer)). A relative activity of less than 100 characterizes the active peptides.

Assay [12] concerns the target HLA-DRB5 (DRB5*0101) (Homo sapiens, UniProt P01903+Q30154). As to the kind of experiment: HLA II/peptide competition binding assay, DRB5. Conditions: ratio of IC50 of competitor peptide to IC50 of reference peptide; mean of at least two independent experiments; less than 100 = active.
The target of assay [13] is HLA-DR1 (DRB1*0101) (Homo sapiens, UniProt P01903+P01911, A100R/D57E/F55L/F60I/F76Y/I96L/L162R/M171V/P40L/Q125E/R42F/V115G/Y59C). The class given is binding. Conditions: ratio of IC50 of competitor peptide to IC50 of reference peptide; mean of at least two independent experiments; less than 100 = active.

Where a chain is given by its changes, count along the chain named.

For “E T I R V T K P C T P K T K A (ETIRVTKPCTPKTKA) [MDK 119-133]”, the “Relative binding activity, DR3” value in assay [1] is on record as greater than 419. In addition, in assay [2], the “Relative binding activity, DR4” value is 1 289. The “Relative binding activity, DR13” value in assay [3] is reported as >2 537. The “Relative binding activity, DR15” value in assay [4] is greater than 529. In addition, the “Relative binding activity, DRB3” value in assay [5] was greater than 485. Also, in assay [6], the “Relative binding activity, DRB4” value is on record as >28 868. Also, the “Relative binding activity, DP401” value in [7] was greater than 879. Besides, in assay [8], the “Relative binding activity, DP402” value was greater than 976.

Regarding “C N W K K E F G A D C K Y K F (CNWKKEFGADCKYKF) [MDK 74-88]”, in [2], the “Relative binding activity, DR4” value is >1 812. In addition, the “Relative binding activity, DR7” value in assay [9] is given as >2 479. In addition, the “Relative binding activity, DR11” value in assay [10] is listed as 1 231. In addition, in [3], the “Relative binding activity, DR13” value was >2 537. The “Relative binding activity, DR15” value in assay [4] is listed as greater than 529. Also, in assay [6], the “Relative binding activity, DRB4” value is reported as >28 868. Further, in assay [7], the “Relative binding activity, DP401” value is on record as greater than 879. The “Relative binding activity, DP402” value in [8] is greater than 976. Besides, the “Total (number of the 12 predominant HLA II molecules bound)” value in [11] amounted to 1.

For the substance “G T L K K A R Y N A Q C Q E T (GTLKKARYNAQCQET) [MDK 105-119]”, the “Relative binding activity, DR3” value in [1] is recorded as greater than 419. In addition, in assay [9], the “Relative binding activity, DR7” value was >2 479. In addition, the “Relative binding activity, DR11” value in [10] is recorded as 1 008. Also, in assay [3], the “Relative binding activity, DR13” value is >2 537. In addition, in assay [4], the “Relative binding activity, DR15” value is 225. Moreover, the “Relative binding activity, DRB3” value in assay [5] is listed as greater than 485. In addition, in [6], the “Relative binding activity, DRB4” value is on record as >28 868. Besides, the “Relative binding activity, DRB5” value in assay [12] was >2 100. Moreover, the “Relative binding activity, DP401” value in assay [7] is on record as greater than 879. Besides, the “Relative binding activity, DP402” value in [8] is on record as greater than 976. Besides, the “Total (number of the 12 predominant HLA II molecules bound)” value in [11] came out at 1.

For the substance “C K Y K F E N W G A C D G G T (CKYKFENWGACDGGT) [MDK 84-98]”, the “Relative binding activity, DR1” value in [13] amounted to 187. Also, in assay [1], the “Relative binding activity, DR3” value is given as greater than 419. In assay [9], the “Relative binding activity, DR7” value is given as >2 479. For the same substance, the “Relative binding activity, DR11” value in assay [10] is recorded as >1 086. For the same substance, in assay [3], the “Relative binding activity, DR13” value was >2 537. For the same substance, in assay [4], the “Relative binding activity, DR15” value is on record as 141. Also, the “Relative binding activity, DRB3” value in assay [5] is reported as greater than 485. Further, the “Relative binding activity, DRB4” value in assay [6] is listed as >28 868. Moreover, the “Total (number of the 12 predominant HLA II molecules bound)” value in assay [11] worked out at 2.

Take “M Q H R G F L L L T L L A L L (MQHRGFLLLTLLALL; MDK 1-15 peptide)”: the “Relative binding activity, DR3” value in assay [1] is on record as greater than 419. Besides, the “Relative binding activity, DR4” value in assay [2] is on record as 226. The “Relative binding activity, DR13” value in assay [3] was >2 537. The “Relative binding activity, DR15” value in [4] was 211. Also, the results for the “Total (number of the 12 predominant HLA II molecules bound)” value in assay [11] and in assay [11] (listed as 1-15) were 5 and “several”, respectively.

For the origin of these results see patent publication US20110159022A1, “Immunogenic Peptides Derived from the Midkine Protein, as an Anticancer Vaccine” (priority 2008, published 2011).
